Experimental data taken from US10662230B2, “Cyclic RGD cell-binding motif and uses thereof” (Spiber Technologies AB, priority 2015, dated 2020).
Substitutions are numbered along the chain they refer to.

Assays:
Type in all cases: cell-based
[1] = system: Normal human epidermal keratinocytes (KC); assay: Early attachment assay, keratinocytes on silk films; settings: for adhesion in each individual experiment: KC on tested silk films
Experimental: Normal human epidermal keratinocytes from adult skin (NHEK-ad) were purchased from Lonza. Subculture, proliferation and migration experiments were done in KGM-Gold (Lonza), containing bovine pituitary extract, whereas adhesion experiments were performed in KGM-CD (chemically defined), supplemented with CaCl2) to give 1.2 mM Ca^2+.
Cells were harvested at passage 3-8, seeded at 20 000/cm^2 and allowed to adhere to the films or controls for 1 h in a cell incubator before gentle washing twice with pre-warmed phosphate buffered saline (PBS) followed by 10 min fixation with 96% ethanol. After three washings in water, cells were stained for 30 min with 0.1% Crystal Violet in H2O. Plates were dried after extensive washing in water.
Attachment and morphology of cells bound to the films obtained in Example 3 were documented by taking micrographs at 2× and 10× magnification in an inverted bright field microscope. The color was then dissolved in 40 μL 20% acetic acid for 10 min, and 35 μL of the solution was transferred to a 384-well plate for optical density measurement at 595 nm (TECAN Infinite M200). Wells with cells fixed without pre-washing was used as positive control. Wells with no cells were used as blank. Experiments were run in hexaplicates and repeated three times.
Determination of cell coverage area within a defined region (9.12 mm^2) of the micrographs (at 2× magnification) was done using the software NIS elements BR (Nikon).
After seeing this positive effect of the introduced FNCC motif, we wanted to find out how well the FNCC-silk would compare to native, full length fibronectin, where the RGD is presented on a turn loop constrained by the structure. We therefore used fibronectin from bovine plasma (BFN) to coat cell culture wells, as well as naked cell culture treated plastic (TCT), on which KC can be cultured, as a control. Serum-free experimental conditions was chosen to avoid possible interactions between the matrices and serum proteins that potentially could give rise to increased cell adherence.
For this purpose, we used two FN-silk variants where a linear RGD presentation is expected (FIG. 1a). The first variant (FNVS; SEQ ID NO: 15), contains the original sequence of the RGD-containing motif in fibronectin, to show the effect of the native flanking amino acids without influence of the loop conformation. In the second variant (FNSS; SEQ ID NO: 14), the two flanking cysteines in FNCC were substituted for serine, which resembles cysteine but lacks the —SH-group and is therefore unable to form disulfide bridges. The different FN-silk variants, as well as RGD-silk (SEQ ID NO: 16) and WT-silk (SEQ ID NO: 2), were evaluated with primary KC. Cells were analyzed both for early attachment (FIG. 5), spreading and formation of stress fibers (FIG. 6), and focal adhesions (FIG. 7). Early attachment assay and cellular stainings were performed as detailed in Example 6.

[2] = system: Normal human epidermal keratinocytes (KC); assay: Formation of focal adhesions (F-actin/vinculin staining), keratinocytes; settings: 3 h adherence, 63× magnification
Experimental: Cells were harvested at passage 3-8, seeded at 3500/cm^2 and allowed to adhere onto films for 20 min, 1 or 3 hours in chamber slides. After gentle washing, cells were fixed with 4% paraformaldehyde, permeabilized with 0.1% Triton X-100 in PBS, and blocked with 1% bovine serum albumin (BSA, AppliChem) in PBS.
Primary antibody were used at the following concentrations in 1% BSA: mouse anti human vinculin (Sigma V9131) at 9.5 μg/ml, mouse-anti human beta1-integrin (activated conformation, clone HUTS-4) at 3.3 μg/mL, or mouse-anti human alpha5-integrin (ligand bound conformation, clone SNAKA-51) at 2.5 μg/mL, both Millipore.
Secondary antibody was AlexaFlour488 goat anti mouse IgG (H+L), cross adsorbed (Invitrogen), used at 1:500. Phalloidin-AlexaFluor594 (Life Technologies) were used at 1:40 to detect filamentous actin. DAPI was used for nuclear staining. Slides were mounted in Fluorescence mounting medium (Dako, Copenhagen).
For microscopic analysis of cell adhesion (formation of focal adhesions and stress fibers), a confocal microscope was used (Carl Zeiss LSM 710) at 10× and 63× magnification.
Quality of focal adhesions were graded from 1-4 regarding presence of small and dim focal adhesion (=1p), small and distinct focal adhesions (=2p), abundant focal adhesions (=3p) and large and bright focal adhesions (=4p), and multiplied with the portion of positive cells expressing this specific type of focal adhesions (0-4, where 0≈none of, 1≈one fourth of, 2≈half of, 3≈three fourths of, and 4≈all of the focal adhesion-positive cells.)
Formation of focal adhesions within the cells was analyzed after 3 h by staining for F-actin in combination with vinculin, which is one of the major components of the focal adhesion complex. Co-staining of F-actin and vinculin is thus a sign of integrin-involved, well established binding of cells to the underlying substrate. Focal adhesions appear as yellow-greenish elongations of the F-actin filaments, often situated close to the cell membrane.
The results from the analysis of formation and characterization of focal adhesions in KC after adherence for 3 h onto films of WT-silk (SEQ ID NO: 2) or silk functionalized with FNCC (SEQ ID NO: 13), FNVS (SEQ ID NO: 15), FNSS (SEQ ID NO: 14) or RGD (SEQ ID NO: 16) is presented in FIG. 7. Slides were scanned with a confocal microscope at 10× for overview (FIG. 7a) and at 63× for details (FIG. 7b). Two types of grading of the focal adhesions in the cells were performed.

[3] = system: Normal human epidermal keratinocytes (KC); assay: Cell spreading by F-actin staining, keratinocytes; settings: 3 h adhesion; for spreading of KC (total cell area in 4× micrographs): seeding 3 500/cm^2
Experimental: Cells were harvested at passage 3-8, seeded at 3500/cm^2 and allowed to adhere onto films for 20 min, 1 or 3 hours in chamber slides. After gentle washing, cells were fixed with 4% paraformaldehyde, permeabilized with 0.1% Triton X-100 in PBS, and blocked with 1% bovine serum albumin (BSA, AppliChem) in PBS. Secondary antibody was AlexaFlour488 goat anti mouse IgG (H+L), cross adsorbed (Invitrogen), used at 1:500. Phalloidin-AlexaFluor594 (Life Technologies) were used at 1:40 to detect filamentous actin. DAPI was used for nuclear staining. Slides were mounted in Fluorescence mounting medium (Dako, Copenhagen). The stained cells were analyzed using an inverted microscope (Nikon Eclipse Ti) at 4× and 10× magnification. Excitation at 563/45 nm and detection at 625/50 nm was used for red fluorescence, whereas excitation with 387/11 nm and detection at 447/60 nm was used to monitor blue fluorescence. By staining for F-actin, cell spreading and formation of stress fibers in KC after 3 h adhesion were investigated (FIG. 6).

**Q.** How did the “cell coverage area within a defined region (9.12 mm^2)” value ([1]; KC, 1 h adhesion, comparison with bovine fibronectin coating and TCT plastic, serum-free) turn out when “BFN: fibronectin from bovine plasma (Sigma-Aldrich F1137), coated at 5 μg/cm^2 [reference compound]” was run?
**A.** Its value is “bound equally well to the BFN and the FNCC-silk after 1 h adherence, and importantly both significantly better than TCT”.

B1: RGD-silk: 4RepCT silk with the linear RGD containing peptide (SEQ ID NO 12) of Widhe et al. (2013) (protein)
chain: GPNSRGDAGAASGQGGYGGLGQGGYGQGAGSSAAAAAAAAAAAAGGQGGQGQGGYGQGSGGSAAAAAAAAAAAAAAAGRGQGGYGQGSGGNAAAAAAAAAAAAAAAGQGGQGGYGRQSQGAGSAAAAAAAAAAAAAAGSGQGGYGGQGQGGYGQSSASASAAASAASTVANSVSRLSSPSAVSRVSSAVSSLVSNGQVNMAALPNIISNISSSVSASAPGASGCEVIVQALLEVITALVQIVSSSSVGYINPSAVNQITNVVANAMAQVMG
modifications: Fusion protein
**Q.** For B1, which “quality (grading) of focal adhesions” value [2] is on record?
**A.** The value was “variation of focal adhesion quality is larger in cells on RGD, FNSS and FNVS than on FNCC-silk”.

**Q.** And the “cell morphology (F-actin)” value [3]?
**A.** The value was “a higher proportion of cells with a rounded appearance”.

B2: FNSS-silk: 4RepCT silk with linear control motif STGRGDSPAS (SEQ ID NO: 11), cysteines substituted for serines (protein)
chain: GPNSSTGRGDSPASGSASGQGGYGGLGQGGYGQGAGSSAAAAAAAAAAAAGGQGGQGQGGYGQGSGGSAAAAAAAAAAAAAAAGRGQGGYGQGSGGNAAAAAAAAAAAAAAAGQGGQGGYGRQSQGAGSAAAAAAAAAAAAAAGSGQGGYGGQGQGGYGQSSASASAAASAASTVANSVSRLSSPSAVSRVSSAVSSLVSNGQVNMAALPNIISNISSSVSASAPGASGCEVIVQALLEVITALVQIVSSSSVGYINPSAVNQITNVVANAMAQVMG
modifications: Fusion protein
**Q.** For B2, which “adhesion in each individual experiment” value [1] is on record?
**A.** The value was “varied from being similar to RGD-silk to being only somewhat lower than on FNCC-silk”.

**Q.** What about the “quality (grading) of focal adhesions” value [2] of the same molecule?
**A.** Its value is “both prominent and subtle focal adhesions”.

**Q.** And the “cell morphology (F-actin)” value [3]?
**A.** Its value is “a higher proportion of cells with a rounded appearance”.

**Q.** What about the “spreading of KC (total cell area in 4× micrographs)” value [3] of the same molecule?
**A.** The value was “but not FNSS or FNVS films, gave a significantly increased spreading of KC compared to RGD-film”.

B3: FNVS-silk: 4RepCT silk with original fibronectin motif VTGRGDSPAS (SEQ ID NO: 9), linear native control (protein)
chain: B2 chain with S5V
modifications: Fusion protein
**Q.** Which results are given for B3?
**A.** adhesion in each individual experiment [1]: varied from being similar to RGD-silk to being only somewhat lower than on FNCC-silk; quality (grading) of focal adhesions [2]: both prominent and subtle focal adhesions; cell morphology (F-actin) [3]: a higher proportion of cells with a rounded appearance; spreading of KC (total cell area in 4× micrographs) [3]: but not FNSS or FNVS films, gave a significantly increased spreading of KC compared to RGD-film
